Laboratory results: paper PMC3817407
Several values for one entry are separate records, joined by “and”; a condition that tells them apart may be missing. Equal values may be shown once.

T1: ECF01_3473
T1 chain: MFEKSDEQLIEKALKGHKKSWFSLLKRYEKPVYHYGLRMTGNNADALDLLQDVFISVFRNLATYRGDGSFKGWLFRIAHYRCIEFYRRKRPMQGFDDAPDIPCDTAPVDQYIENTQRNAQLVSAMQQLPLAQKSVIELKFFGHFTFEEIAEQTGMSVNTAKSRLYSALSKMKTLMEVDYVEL

T2: ECF02_2817
T2 chain: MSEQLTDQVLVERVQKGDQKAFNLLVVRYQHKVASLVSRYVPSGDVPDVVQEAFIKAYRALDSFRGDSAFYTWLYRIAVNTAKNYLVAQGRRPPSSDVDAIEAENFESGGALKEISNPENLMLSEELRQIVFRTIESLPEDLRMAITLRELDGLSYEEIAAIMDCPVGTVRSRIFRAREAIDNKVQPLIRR

T3: ECF15_524
T3 chain: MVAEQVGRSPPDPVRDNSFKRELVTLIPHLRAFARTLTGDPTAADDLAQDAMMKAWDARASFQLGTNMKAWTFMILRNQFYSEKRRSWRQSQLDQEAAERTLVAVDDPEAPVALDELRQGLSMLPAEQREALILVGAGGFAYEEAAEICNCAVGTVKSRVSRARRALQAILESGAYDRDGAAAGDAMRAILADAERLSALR

T4: ECF16_3622
T4 chain: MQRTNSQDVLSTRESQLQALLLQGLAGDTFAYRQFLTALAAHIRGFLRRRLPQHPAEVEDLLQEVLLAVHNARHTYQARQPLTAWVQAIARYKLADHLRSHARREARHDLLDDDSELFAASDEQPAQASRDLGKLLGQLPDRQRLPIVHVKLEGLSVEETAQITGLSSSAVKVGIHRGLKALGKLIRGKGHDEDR

T5: ECF17_1458
T5 chain: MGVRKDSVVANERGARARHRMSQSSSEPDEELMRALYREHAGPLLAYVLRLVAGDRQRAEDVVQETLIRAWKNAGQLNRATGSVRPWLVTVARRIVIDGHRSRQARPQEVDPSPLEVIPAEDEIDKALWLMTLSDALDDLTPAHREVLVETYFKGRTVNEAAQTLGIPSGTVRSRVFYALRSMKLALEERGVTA

T6: ECF17_1691
T6 chain: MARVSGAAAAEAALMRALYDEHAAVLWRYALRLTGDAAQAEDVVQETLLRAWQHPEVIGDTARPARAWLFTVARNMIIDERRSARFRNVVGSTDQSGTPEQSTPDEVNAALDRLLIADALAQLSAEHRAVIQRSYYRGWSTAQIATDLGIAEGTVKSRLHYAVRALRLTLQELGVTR

T7: ECF20_992
T7 chain: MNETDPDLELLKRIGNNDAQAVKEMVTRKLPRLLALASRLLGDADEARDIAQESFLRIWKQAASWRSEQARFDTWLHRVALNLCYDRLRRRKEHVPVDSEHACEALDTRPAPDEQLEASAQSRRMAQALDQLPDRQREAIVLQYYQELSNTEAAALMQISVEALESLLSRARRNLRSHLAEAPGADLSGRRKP

T8: ECF22_4450
T8 chain: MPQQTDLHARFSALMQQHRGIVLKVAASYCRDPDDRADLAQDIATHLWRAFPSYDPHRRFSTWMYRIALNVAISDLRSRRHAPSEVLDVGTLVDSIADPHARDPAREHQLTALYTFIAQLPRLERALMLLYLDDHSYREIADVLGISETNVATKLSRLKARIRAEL

T9: ECF25_1643
T9 chain: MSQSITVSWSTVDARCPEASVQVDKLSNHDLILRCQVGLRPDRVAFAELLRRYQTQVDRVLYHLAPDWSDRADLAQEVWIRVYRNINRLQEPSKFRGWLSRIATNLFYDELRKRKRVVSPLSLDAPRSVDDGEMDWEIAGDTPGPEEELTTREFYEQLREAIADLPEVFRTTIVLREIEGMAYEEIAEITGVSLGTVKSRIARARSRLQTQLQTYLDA

T10: ECF25_1645
T10 chain: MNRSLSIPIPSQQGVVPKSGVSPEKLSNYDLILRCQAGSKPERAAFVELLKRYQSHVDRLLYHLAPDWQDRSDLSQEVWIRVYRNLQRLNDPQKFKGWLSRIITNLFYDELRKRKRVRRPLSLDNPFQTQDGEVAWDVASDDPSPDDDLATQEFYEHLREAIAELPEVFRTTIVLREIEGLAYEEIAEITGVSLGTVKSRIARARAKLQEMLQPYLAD

T11: ECF28_1040
T11 chain: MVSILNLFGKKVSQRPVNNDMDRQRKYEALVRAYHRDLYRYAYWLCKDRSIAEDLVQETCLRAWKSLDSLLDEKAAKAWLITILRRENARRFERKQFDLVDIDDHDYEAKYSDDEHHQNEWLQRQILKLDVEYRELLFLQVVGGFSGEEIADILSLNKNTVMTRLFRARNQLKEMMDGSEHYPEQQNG

T12: ECF28_1088
T12 chain: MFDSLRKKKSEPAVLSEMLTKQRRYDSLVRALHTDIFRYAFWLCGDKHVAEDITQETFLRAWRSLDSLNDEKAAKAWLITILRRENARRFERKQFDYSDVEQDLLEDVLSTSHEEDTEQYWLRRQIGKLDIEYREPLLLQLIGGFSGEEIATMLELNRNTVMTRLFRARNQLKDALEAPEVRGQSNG

T13: ECF30_35
T13 chain: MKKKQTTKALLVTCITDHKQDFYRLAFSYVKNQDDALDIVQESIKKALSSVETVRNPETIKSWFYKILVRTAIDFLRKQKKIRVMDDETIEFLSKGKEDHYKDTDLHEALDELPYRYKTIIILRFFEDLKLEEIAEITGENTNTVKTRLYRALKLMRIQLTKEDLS

T14: ECF31_34
T14 chain: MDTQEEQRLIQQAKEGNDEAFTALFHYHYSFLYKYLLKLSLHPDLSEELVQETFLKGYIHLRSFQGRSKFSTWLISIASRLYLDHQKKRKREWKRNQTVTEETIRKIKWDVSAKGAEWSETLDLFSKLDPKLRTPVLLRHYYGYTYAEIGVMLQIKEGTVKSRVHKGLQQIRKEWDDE

B1: AS31_34 (protein)
chain: MNKEKLSDHLKSEWKKIDQTANPSIPNQKELLHQLSQMKAEYRKKLLQEIILFVFCALMVVSAAILAFTQAPAVFIVLQVCVLAVLPILIAAEKKRHLGECEVKRG
B2: AS25_1645 (protein)
chain: MNESFSQRQTDGDRRRGGDLEMKKNHTSHQHHTDSETPMGHNFEQFQRLSAYFDGEATPAERKEIQHLLDTDPQVKQQYQQLRQLKQALQLLPIPTSISAQYLGQRVLARLRRSQLRTLSLWGSGAIAALFVAGVMGQMPRLNFDRFAKNDPDQQPTAALVETSPQGEEALVVALNRPVLQIPKLATTESP
B3: AS30_35 (protein)
chain: MDKRLQQLREEYKNVQIPKELDIIVEKALQQEPKKKRIVMWPTSAAIAAAILFTALVNINPDAAQAMSKIPVIGKIVKAITFIEIKEEKDQSSIDVKTPALSGLSNKELENSINEKYLKESQQLYKEFIQSTSKNKKGHLSIYSDYETVTDTPDLLSIRRNIETTQASSYTQSRYITIDKKNDILLTLKSLFKDERYIKVISQNIKEQMKQQMKEDPNKIYWLTDEDAEPFKTILPDQTFYITEDHKLVISFDEYEVAPGYMGVTEFTIPTGVISNLLVGERYIR
B4: AS25_1643_cl43 (protein)
chain: MTTDSNFNDPCRRQFSRDLPQKMARHTNEATGAMDMVKRDRFELLSAYLGGEVTAAERRQVEDWPANDVAVQRLYSRLLKLRQGIRTMPIPTAQQSPETTAEQVFAKVNRRSRLAWKLGGAAVAACVIGAVTNWLPGRQTGIPQLAQQPQEQPTQAVTTPDALPMIALNNPVIEIPKAAVASPTKFIQPQPQLGEIPPDIN
B5: AS27_1331 (protein)
chain: MSAADKDPDKHSADADPPLTVELLADLQAGLLDDATAARIRSRVRSDPQAQQILRALNRVRRDVAAMGADPAWGPAARPAVVDSISAALRSARPNSSPGAAHAARPHVHPVRMIAGAAGLCAVATAIGVGAVVDAPPPAPSAPTTAQHITVSKPAPVIPLSRPQVLDLLHHTPDYGPPGGPLGDPSRRTSCLSGLGYPASTPVLGAQPIDIDARPAVLLVIPADTPDKLAVFAVAPHCSAADTGLLASTVVPRA
B6: AS27_4265 (protein)
chain: MTGHPDVAEIADLAEGLLPTTRTTEVRQHLESCELCADVYASLTEIQGLLGTLPAPAPMPDDVAARIDAALAAEPPLGIADGTRVSRETSTPADRPAGHARPSSTGPGRKDRRRGGRRRIAVLGAVAAAAAIGIGSVVVSSLTEDSSSGNTAREQQTAIADTFSEGRLKDRVTNLVADGSAENGSRTPRSFGMESENGGETAENHVFKQPTVPECIRKGIGRDDAVIATEPGVYKGREALLVVLPDATNDTQVTAYIVETACVDQPAVGKAKILLEHSYARS

Molecular target: T1, ECF01_3473

Binder | fold repression
B1 | 1.76
B2 | 7.11
B3 | 1.65
B4 | 2.75
B5 | 2.69
B6 | 3.99

Molecular target: T2, ECF02_2817

Binder | fold repression
B1 | 1.79
B2 | 9.88
B3 | 1.56
B4 | 4.05
B5 | 2.82
B6 | 1.4

Molecular target: T3, ECF15_524

Binder | fold repression
B1 | 2.19
B2 | 6.73
B3 | 1.74
B4 | 1.18
B5 | 3.38
B6 | 2.74

Molecular target: T4, ECF16_3622

Binder | fold repression
B1 | 3.01
B2 | 6.9
B3 | 1.39
B4 | 2.26
B5 | 6.93
B6 | 5.58

Molecular target: T5, ECF17_1458

Binder | fold repression
B1 | 4.02
B2 | 7.18
B3 | 1.52
B4 | 2.2
B5 | 2.79
B6 | 2.47

Molecular target: T6, ECF17_1691

Binder | fold repression
B1 | 2.93
B2 | 4.24
B3 | 1.6
B4 | 1.92
B5 | 2.09
B6 | 2.82

Molecular target: T7, ECF20_992

Binder | fold repression
B1 | 2.35
B2 | 5.73
B3 | 2.34
B4 | 1.99
B5 | 6.81
B6 | 15.2

Molecular target: T8, ECF22_4450

Binder | fold repression
B1 | 3.59
B2 | 9.86
B3 | 2.21
B4 | 3.35
B5 | 5.86
B6 | 4.03

Molecular target: T9, ECF25_1643

Binder | fold repression
B1 | 2.25 and 1.91
B2 | 19.5 and 19.2
B3 | 1.46 and 1.19
B4 | 4.28 and 3.89
B5 | 2.81 and 2.4
B6 | 1.63 and 1.17

Molecular target: T10, ECF25_1645

Binder | fold repression
B1 | 1.99
B2 | 33.7
B3 | 1.69
B4 | 7.28
B5 | 3.12
B6 | 1.02

Each binder was assayed against ECF26_4464.

Binder | fold repression
B1 | 3.63
B2 | 15.3
B3 | 2.19
B4 | 6.66
B5 | 3.61
B6 | 5.53

Molecular target: T11, ECF28_1040

Binder | fold repression
B1 | 2.22
B2 | 2.95
B3 | 1.32
B4 | 1.09
B5 | 1.5
B6 | 2.19

Molecular target: T12, ECF28_1088

Binder | fold repression
B1 | 1.59
B2 | 3.89
B3 | 1.68
B4 | 1.48
B5 | 1.37
B6 | 2.14

Molecular target: T13, ECF30_35

Binder | fold repression
B1 | 1.68
B2 | 3.43
B3 | 55.4
B4 | 0.929
B5 | 3.98
B6 | 5.45

Molecular target: T14, ECF31_34

Binder | fold repression
B1 | 22.7
B2 | 5.66
B3 | 2.22
B4 | 1.58
B5 | 5.7
B6 | 1.67
